From patent US20200247902A1

Biological target: bovine submaxillary mucin (BSM) (bovine)
Experiment: ELISA on BSM-coated wells, 0-100 nM antibody; periodate-treated signal subtracted (periodate-sensitive STn binding curve)

EC50: 4.2 nM
B1: SIA01 (antibody, V domains shown)
VH: EVQLVQSGAEVKKPGASVKVSCKASGYTFTDHAIHWVRQAPGQGLEWMGYFSPGNDDIKYNEKFRGRVTMTADKSSSTAYMELRSLRSDDTAVYFCKRSLSTPYWGQGTLVTVSS
VL: DIVMTQSPDSLAVSLGERATINCKSSQSLLNRGNHKNYLTWYQQKPGQPPKLLIYWASTRESGVPDRFSGSGSGTDFTLTISSLQAEDVAVYYCQNDYTYPYTFGQGTKVEIK
